This series has as its target T1, P220 MMP9-cleavable peptide, Biotin-GGGGGGGGGGPLGVRGKGGC
T1 chain: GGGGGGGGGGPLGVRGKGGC

B1: MMP7 (Active, Human, Recombinant, E. coli, 444270, Merck Millipore) (protein)
chain: YSLFPNSPKWTSKVVTYRIVSYTRDLPHITVDRLVSKALNMWGKEIPLHFRKVVWGTADIMIGFARGAHGDSYPFDGPGNTLAHAFAPGTGLGGDAHFDEDERWTDGSSLGINFLYAATHELGHSLGMGHSSDPNAVMYPTYGNGDPQNFKLSQDDIKGIQKLYGKRSNSRKK
Take B1: the “% Cleavage (free AuNC fraction: 7-12 mL), gel filtration chromatography with catalytic activity readout; AuNC-P220-NAv + MMP7/9/13 (12 h)” value is listed as “MMP7: 12.1%”.

Source of the values: patent US20200116725.
